In this experiment the target is Drosophila melanogaster TRPA1, dTRPA1-A isoform (Drosophila melanogaster). Description: cryo-EM structure; purified dTRPA1-A in 25 mM HEPES pH 7.4, 150 mM NaCl, 0.02% GDN; grids prepared at 8 °C; two conformations (state-1, 3.2 Å; state-2, 3.0 Å) from the same sample.

One may read the stoichiometry N as the number of molecules, sites or subunits per partner or assembly.

Take “Drosophila melanogaster TRPA1, dTRPA1-A isoform (natural protein)”: the stoichiometry N came out at 4.

Source of the values: PMC10073219.
